We go through 10 substances from the supplement of paper PMC5998384.

Data set [1] relates to HeLa Kyoto. Put plainly: solubility change mitosis vs G1/S (difference of NP-40 vs SDS log2 ratios) (log2 ratio difference); higher = more soluble in mitosis.
For data set [2], the system named is HeLa Kyoto. Nature of the data set: thermal stability score vs G1/S (z-score of summed log2 fold changes over temperatures); higher = more thermally stable than in G1/S.
Data set [3] has as its system HeLa Kyoto. Nature of the data set: solubility in G1/S (NP-40 vs SDS abundance) (log2 ratio); higher = more soluble. As to conditions: cell cycle stage: G1/S.
[4] abbreviates: cell cycle stage: early G1 (4.5 h after nocodazole release).
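For solubility change mitosis vs G1/S (difference of NP-40 vs SDS log2 ratios) in this document: synchronized HeLa Kyoto cells (double thymidine block for G1/S, nocodazole release for mitosis), protein amounts in NP-40 versus SDS lysates quantified by mass spectrometry, three biological replicates.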
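For solubility in G1/S (NP-40 vs SDS abundance) in this document: HeLa Kyoto cells arrested at G1/S by double thymidine block, proteins quantified by TMT10plex mass spectrometry in mild NP-40 versus SDS extracts, three biological replicates.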
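For thermal stability score vs G1/S (z-score of summed log2 fold changes over temperatures) in this document: synchronized HeLa Kyoto cells, proteins quantified by TMT10plex mass spectrometry, three biological replicates, mitosis taken 0.5 h after nocodazole release, G1/S directly after double thymidine block.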

Chain of DENND4A (chain, as listed by the source): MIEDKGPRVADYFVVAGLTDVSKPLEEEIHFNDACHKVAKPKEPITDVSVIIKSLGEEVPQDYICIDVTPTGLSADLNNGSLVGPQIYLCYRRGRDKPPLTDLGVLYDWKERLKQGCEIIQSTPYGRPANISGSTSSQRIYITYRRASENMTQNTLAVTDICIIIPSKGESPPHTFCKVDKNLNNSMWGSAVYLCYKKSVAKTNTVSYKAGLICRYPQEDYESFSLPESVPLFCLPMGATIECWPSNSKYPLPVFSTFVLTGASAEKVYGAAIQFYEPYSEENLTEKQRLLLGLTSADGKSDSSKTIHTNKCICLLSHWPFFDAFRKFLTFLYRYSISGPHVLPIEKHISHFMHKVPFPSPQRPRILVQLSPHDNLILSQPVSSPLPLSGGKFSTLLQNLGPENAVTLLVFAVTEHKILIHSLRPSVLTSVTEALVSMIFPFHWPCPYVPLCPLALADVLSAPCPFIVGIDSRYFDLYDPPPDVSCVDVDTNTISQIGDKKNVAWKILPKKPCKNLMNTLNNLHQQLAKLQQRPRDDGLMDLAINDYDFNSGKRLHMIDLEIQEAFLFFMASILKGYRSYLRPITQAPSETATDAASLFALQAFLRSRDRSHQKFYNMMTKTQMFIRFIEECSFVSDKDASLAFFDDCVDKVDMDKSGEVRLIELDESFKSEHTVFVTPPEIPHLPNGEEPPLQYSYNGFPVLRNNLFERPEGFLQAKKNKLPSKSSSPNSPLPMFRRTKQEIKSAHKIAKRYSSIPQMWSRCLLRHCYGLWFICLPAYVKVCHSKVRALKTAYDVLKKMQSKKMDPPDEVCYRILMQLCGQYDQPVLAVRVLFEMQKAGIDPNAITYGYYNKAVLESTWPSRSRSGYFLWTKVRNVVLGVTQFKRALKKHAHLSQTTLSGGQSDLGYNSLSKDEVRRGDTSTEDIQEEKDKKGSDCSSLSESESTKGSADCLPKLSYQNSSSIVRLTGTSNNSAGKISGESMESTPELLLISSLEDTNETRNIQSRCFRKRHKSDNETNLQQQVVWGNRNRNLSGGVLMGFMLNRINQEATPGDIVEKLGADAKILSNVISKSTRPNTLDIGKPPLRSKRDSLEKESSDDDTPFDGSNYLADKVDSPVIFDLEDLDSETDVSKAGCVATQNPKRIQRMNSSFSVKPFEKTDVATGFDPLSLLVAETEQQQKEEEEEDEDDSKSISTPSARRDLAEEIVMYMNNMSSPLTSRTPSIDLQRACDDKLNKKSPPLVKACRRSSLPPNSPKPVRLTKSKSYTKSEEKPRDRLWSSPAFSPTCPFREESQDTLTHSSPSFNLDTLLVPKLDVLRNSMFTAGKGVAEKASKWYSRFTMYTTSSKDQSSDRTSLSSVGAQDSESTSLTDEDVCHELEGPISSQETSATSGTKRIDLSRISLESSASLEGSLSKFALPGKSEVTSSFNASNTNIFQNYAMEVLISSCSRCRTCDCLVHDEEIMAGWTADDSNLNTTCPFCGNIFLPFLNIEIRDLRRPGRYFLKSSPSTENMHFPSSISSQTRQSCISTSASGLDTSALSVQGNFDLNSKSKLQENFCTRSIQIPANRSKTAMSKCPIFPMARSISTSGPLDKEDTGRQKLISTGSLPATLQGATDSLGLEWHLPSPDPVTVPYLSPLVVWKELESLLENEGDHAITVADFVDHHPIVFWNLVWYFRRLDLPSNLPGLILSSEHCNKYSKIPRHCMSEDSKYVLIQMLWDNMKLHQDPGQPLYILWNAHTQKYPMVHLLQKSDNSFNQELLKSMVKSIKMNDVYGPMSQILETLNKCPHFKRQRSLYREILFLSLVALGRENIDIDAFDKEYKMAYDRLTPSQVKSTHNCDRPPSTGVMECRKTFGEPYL

For the substance “MAAAAVDSAMEVVPALAEEAAPEVAGLSCLVNLPGEVLEYILCCGSLTAADIGRVSSTCRRLRELCQSSGKVWKEQFRVRWPSLMKHYSPTDYVNWLEEYKVRQKAGLEARKIVASFSKRFFSEHVPCNGFSDIENLEGPEIFFEDELVCILNMEGRKALTWKYYAKKILYYLRQQKILNNLKAFLQQPDDYESYLEGAVYIDQYCNPLSDISLKDIQAQIDSIVELVCKTLRGINSRHPSLAFKAGESSMIMEIELQSQVLDAMNYVLYDQLKFKGNRMDYYNALNLYMHQVLIRRTGIPISMSLLYLTIARQLGVPLEPVNFPSHFLLRWCQGAEGATLDIFDYIYIDAFGKGKQLTVKECEYLIGQHVTAALYGVVNVKKVLQRMVGNLLSLGKREGIDQSYQLLRDSLDLYLAMYPDQVQLLLLQARLYFHLGIWPEKSFCLVLKVLDILQHIQTLDPGQHGAVGYLVQHTLEHIERKKEEVGVEVKLRSDEKHRDVCYSIGLIMKHKRYGYNCVIYGWDPTCMMGHEWIRNMNVHSLPHGHHQPFYNVLVEDGSCRYAAQENLEYNVEPQEISHPDVGRYFSEFTGTHYIPNAELEIRYPEDLEFVYETVQNIYSAKKENIDE [FBXO21]”, the “solubility change mitosis (log2)” value with HeLa Kyoto [1] is -0.0785. In addition, the thermal stability score with HeLa Kyoto [2] (setting [4]) was found to be 0.858; with HeLa Kyoto [2] (cell cycle stage: mitosis) it was 1.12. In addition, the “solubility in G1/S (log2)” value in the data set on HeLa Kyoto [3] was -0.126.
For “MAASKTQGAVARMQEDRDGSCSTVGGVGYGDSKDCILEPLSLPESPGGTTTLEGSPSVPCIFCEEHFPVAEQDKLLKHMIIEHKIVIADVKLVADFQRYILYWRKRFTEQPITDFCSVIRINSTAPFEEQENYFLLCDVLPEDRILREELQKQRLREILEQQQQERNDTNFHGVCMFCNEEFLGNRSVILNHMAREHAFNIGLPDNIVNCNEFLCTLQKKLDNLQCLYCEKTFRDKNTLKDHMRKKQHRKINPKNREYDRFYVINYLELGKSWEEVQLEDDRELLDHQEDDWSDWEEHPASAVCLFCEKQAETIEKLYVHMEDAHEFDLLKIKSELGLNFYQQVKLVNFIRRQVHQCRCYGCHVKFKSKADLRTHMEETKHTSLLPDRKTWDQLEYYFPTYENDTLLCTLSDSESDLTAQEQNENVPIISEDTSKLYALKQSSILNQLLL [ZNF277]”, in that order: 0.173, 0.293, 1.38 and -0.685.
On to DENND4A, for which, in the data set on HeLa Kyoto [1], the “solubility change mitosis (log2)” value is -0.246. Also, the thermal stability score in the data set with HeLa Kyoto [2] (setting [4]) is -0.12; in the data set on HeLa Kyoto [2] (cell cycle stage: mitosis) it was -0.608. In addition, the “solubility in G1/S (log2)” value with HeLa Kyoto [3] is 0.0407.
For “MSSACDAGDHYPLHLLVWKNDYRQLEKELQGQNVEAVDPRGRTLLHLAVSLGHLESARVLLRHKADVTKENRQGWTVLHEAVSTGDPEMVYTVLQHRDYHNTSMALEGVPELLQKILEAPDFYVQMKWEFTSWVPLVSRICPNDVCRIWKSGAKLRVDITLLGFENMSWIRGRRSFIFKGEDNWAELMEVNHDDKVVTTERFDLSQEMERLTLDLMKPKSREVERRLTSPVINTSLDTKNIAFERTKSGFWGWRTDKAEVVNGYEAKVYTVNNVNVITKIRTEHLTEEEKKRYKADRNPLESLLGTVEHQFGAQGDLTTECATANNPTAITPDEYFNEEFDLKDRDIGRPKELTIRTQKFKAMLWMCEEFPLSLVEQVIPIIDLMARTSAHFARLRDFIKLEFPPGFPVKIEIPLFHVLNARITFGNVNGCSTAEESVSQNVEGTQADSASHITNFEVDQSVFEIPESYYVQDNGRNVHLQDEDYEIMQFAIQQSLLESSRSQELSGPASNGGISQTNTYDAQYERAIQESLLTSTEGLCPSALSETSRFDNDLQLAMELSAKELEEWELRLQEEEAELQQVLQLSLTDK [ANKRD13A]”, in that order: -0.0203, 0.86, 0.416 and -0.139.
For “MAGSYPEGAPAVLADKRQQFGSRFLRDPARVFHHNAWDNVEWSEEQAAAAERKVQENSIQRVCQEKQVDYEINAHKYWNDFYKIHENGFFKDRHWLFTEFPELAPSQNQNHLKDWFLENKSEVPECRNNEDGPGLIMEEQHKCSSKSLEHKTQTLPVEENVTQKISDLEICADEFPGSSATYRILEVGCGVGNTVFPILQTNNDPGLFVYCCDFSSTAIELVQTNSEYDPSRCFAFVHDLCDEEKSYPVPKGSLDIIILIFVLSAIVPDKMQKAINRLSRLLKPGGMMLLRDYGRYDMAQLRFKKGQCLSGNFYVRGDGTRVYFFTQEELDTLFTTAGLEKVQNLVDRRLQVNRGKQLTMYRVWIQCKYCKPLLSSTS [METTL2A]”, in that order: 0.0978, 0.497, 0.608 and 0.185.
As to UBR3, in the data set with HeLa Kyoto [1], the “solubility change mitosis (log2)” value was -0.171. For the same substance, the values for the thermal stability score in the data set on HeLa Kyoto [2] (setting [4]) and in the data set on HeLa Kyoto [2] (cell cycle stage: mitosis) were -0.103 and -0.24, respectively. The “solubility in G1/S (log2)” value with HeLa Kyoto [3] was -0.174.
For “MMPSRTNLATGIPSSKVKYSRLSSTDDGYIDLQFKKTPPKIPYKAIALATVLFLIGAFLIIIGSLLLSGYISKGGADRAVPVLIIGILVFLPGFYHLRIAYYASKGYRGYSYDDIPDFDD [TMEM230]” the same measures were -0.0463, -1.72, -2.3 and 0.0716.
For “MIDSVKLRRDSAADFFSHYEYLCALQNSVPLPAVRACLREGVLDFNADRLRGVDWAPLLSTLKINKDLPLVSIKSFFQPWLGDTGSDMNKFCRSRVPAIRYKDVTFQLCKALKGCLSISSVLKNLELNGLILRERDLTILAKGLNKSASLVHLSLANCPIGDGGLEIICQGIKSSITLKTVNFTGCNLTWQGADHMAKILKYQTMRRHEETWAESLRYRRPDLDCMAGLRRITLNCNTLIGDLGACAFADSLSEDLWLRALDLQQCGLTNEGAKALLEALETNTTLVVLDIRKNPLIDHSMMKAVIKKVLQNGRSAKSEYQWITSPSVKEPSKTAKQKRRTIILGSGHKGKATIRIGLATKKPVSSGRKHSLGKEYYAPAPLPPGVSGFLPWRTAERAKRHRGFPLIKTRDICNQLQQPGFPVTVTVESPSSSEVEEVDDSSESVHEVPEKTSIEQEALQEKLEECLKQLKEERVIRLKVDKRVSELEHENAQLRNINFSLSEALHAQSLTNMILDDEGVLGSIENSFQKFHAFLDLLKDAGLGQLATMAGIDQSDFQLLGHPQMTSTVSNPPKEEKKALEDEKPEPKQNALGQMQNIQFQKITGDARIPLPLDSFPVPVSTPEGLGTSSNNLGVPATEQRQESFEGFIARMCSPSPDATSGTGSQRKEEELSRNSRSSSEKKTKTESH [CEP78]” the same measures were 0.821, 2.82, 3.49 and 0.0898.
For “MDRAPTEQNVKLSAEVEPFIPQKKSPDTFMIPMALPNDNGSVSGVEPTPIPSYLITCYPFVQENQSNRQFPLYNNDIRWQQPNPNPTGPYFAYPIISAQPPVSTEYTYYQLMPAPCAQVMGFYHPFPTPYSNTFQAANTVNAITTECTERPSQLGQVFPLSSHRSRNSNRGSVVPKQQLLQQHIKSKRPLVKNVATQKETNAAGPDSRSKIVLLVDASQQTDFPSDIANKSLSETTATMLWKSKGRRRRASHPTAESSSEQGASEADIDSDSGYCSPKHSNNQPAAGALRNPDSGTMNHVESSMCAGGVNWSNVTCQATQKKPWMEKNQTFSRGGRQTEQRNNSQVGFRCRGHSTSSERRQNLQKRPDNKHLSSSQSHRSDPNSESLYFEDEDGFQELNENGNAKDENIQQKLSSKVLDDLPENSPINIVQTPIPITTSVPKRAKSQKKKALAAALATAQEYSEISMEQKKLQEALSKAAGKKNKTPVQLDLGDMLAALEKQQQAMKARQITNTRPLSYTVVTAASFHTKDSTNRKPLTKSQPCLTSFNSVDIASSKAKKGKEKEIAKLKRPTALKKVILKEREEKKGRLTVDHNLLGSEEPTEMHLDFIDDLPQEIVSQEDTGLSMPSDTSLSPASQNSPYCMTPVSQGSPASSGIGSPMASSTITKIHSKRFREYCNQVLCKEIDECVTLLLQELVSFQERIYQKDPVRAKARRRLVMGLREVTKHMKLNKIKCVIISPNCEKIQSKGGLDEALYNVIAMAREQEIPFVFALGRKALGRCVNKLVPVSVVGIFNYFGAESLFNKLVELTEEARKAYKDMVAAMEQEQAEEALKNVKKVPHHMGHSRNPSAASAISFCSVISEPISEVNEKEYETNWRNMVETSDGLEASENEKEVSCKHSTSEKPSKLPFDTPPIGKQPSLVATGSTTSATSAGKSTASDKEEVKPDDLEWASQQSTETGSLDGSCRDLLNSSITSTTSTLVPGMLEEEEDEDEEEEEDYTHEPISVEVQLNSRIESWVSETQRTMETLQLGKTLNGSEEDNVEQSGEEEAEAPEVLEPGMDSEAWTADQQASPGQQKSSNCSSLNKEHSDSNYTTQTT [SECISBP2L]”, in that order: 0.0796, 1.54, 2.5 and -0.226.
On to LAMA3, for which, in the data set with HeLa Kyoto [1], the “solubility change mitosis (log2)” value was 0.0773. Also, the results for the thermal stability score with HeLa Kyoto [2] (setting [4]) and with HeLa Kyoto [2] (cell cycle stage: mitosis) were -0.604 and -0.145, respectively. In addition, the “solubility in G1/S (log2)” value in the data set on HeLa Kyoto [3] was -0.331.
